# Key:
# Experiment in all cases: cell-based or functional assay
# [1] = target: PKCα (h) (human) (UniProt P17252)
# [2] = target: T1, ULK2 (h) (human) (UniProt Q8IYT8)
# T1 sequence (looked up): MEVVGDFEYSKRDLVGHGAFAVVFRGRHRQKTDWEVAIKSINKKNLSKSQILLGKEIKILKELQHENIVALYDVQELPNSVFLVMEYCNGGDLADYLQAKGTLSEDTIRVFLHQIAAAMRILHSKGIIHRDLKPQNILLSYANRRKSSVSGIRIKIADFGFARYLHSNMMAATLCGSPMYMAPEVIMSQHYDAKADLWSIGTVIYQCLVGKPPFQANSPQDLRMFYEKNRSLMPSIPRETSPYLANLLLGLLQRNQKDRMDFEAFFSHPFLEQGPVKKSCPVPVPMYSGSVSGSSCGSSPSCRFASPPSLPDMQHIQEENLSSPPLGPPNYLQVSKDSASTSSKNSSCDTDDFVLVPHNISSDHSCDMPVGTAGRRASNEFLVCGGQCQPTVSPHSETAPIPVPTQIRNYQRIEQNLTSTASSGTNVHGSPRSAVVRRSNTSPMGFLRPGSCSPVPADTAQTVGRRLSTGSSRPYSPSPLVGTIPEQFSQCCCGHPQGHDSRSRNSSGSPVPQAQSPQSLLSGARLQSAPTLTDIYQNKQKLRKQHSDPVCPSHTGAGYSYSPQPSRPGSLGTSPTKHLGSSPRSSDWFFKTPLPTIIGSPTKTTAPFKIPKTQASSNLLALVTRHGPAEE
# [3] = target: Plk3 (h) (human) (UniProt Q9H4B4)
# [4] = target: LOK (h) (human) (UniProt O94804)
# [5] = target: FGFR4 (h) (human) (UniProt P22455)
# [6] = target: T2, ULK3 (h) (human) (UniProt Q6PHR2)
# T2 sequence (looked up): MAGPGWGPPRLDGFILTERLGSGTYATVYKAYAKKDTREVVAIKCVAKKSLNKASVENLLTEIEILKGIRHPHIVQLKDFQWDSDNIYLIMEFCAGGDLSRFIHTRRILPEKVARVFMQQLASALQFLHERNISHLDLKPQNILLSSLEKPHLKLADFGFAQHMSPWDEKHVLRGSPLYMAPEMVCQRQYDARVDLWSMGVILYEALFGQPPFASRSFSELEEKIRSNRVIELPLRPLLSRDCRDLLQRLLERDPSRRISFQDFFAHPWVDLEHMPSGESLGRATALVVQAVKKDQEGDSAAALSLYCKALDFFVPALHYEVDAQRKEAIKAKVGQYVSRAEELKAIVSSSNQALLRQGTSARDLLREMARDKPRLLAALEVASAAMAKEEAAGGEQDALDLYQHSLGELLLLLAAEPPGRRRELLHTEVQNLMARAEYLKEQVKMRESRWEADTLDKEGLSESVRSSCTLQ
# [7] = target: Met(D1246N) (h) (human) (UniProt P08581)
# [8] = target: T3, CHK1 (h) (human) (UniProt O14757)
# T3 sequence (looked up): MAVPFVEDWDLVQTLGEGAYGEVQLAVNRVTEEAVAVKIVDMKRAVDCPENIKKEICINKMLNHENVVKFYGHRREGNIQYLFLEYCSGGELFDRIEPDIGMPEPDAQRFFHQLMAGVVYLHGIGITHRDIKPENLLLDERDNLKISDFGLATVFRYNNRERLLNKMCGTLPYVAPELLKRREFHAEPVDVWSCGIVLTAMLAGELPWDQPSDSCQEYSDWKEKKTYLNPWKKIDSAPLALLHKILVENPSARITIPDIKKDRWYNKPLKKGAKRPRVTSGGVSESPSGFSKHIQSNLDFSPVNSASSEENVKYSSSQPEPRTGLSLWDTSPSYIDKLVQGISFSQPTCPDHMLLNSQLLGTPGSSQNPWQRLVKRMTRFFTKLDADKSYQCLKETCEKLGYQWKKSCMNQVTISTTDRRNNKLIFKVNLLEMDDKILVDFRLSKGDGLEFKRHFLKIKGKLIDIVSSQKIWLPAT
# [9] = target: MLK1 (h) (human) (UniProt P80192)
# [10] = target: Rsk2 (h) (human) (UniProt P51812)
# [11] = target: CDK1/cyclinB (h) (human) (UniProt P06493)
# [12] = target: CDK2/cyclinE (h) (human) (UniProt P24941)
# [13] = target: DYRK2 (h) (human) (UniProt Q92630)
# [14] = target: Lck (h) activated (human) (UniProt P06239)
# [15] = target: BRK (h) (human) (UniProt Q13882)
# [16] = target: HIPK3 (h) (human) (UniProt Q9H422)
# [17] = target: MELK (h) (human) (UniProt Q14680)
# [18] = target: T4, DRAK1 (h) (human) (UniProt Q9UEE5)
# T4 sequence (looked up): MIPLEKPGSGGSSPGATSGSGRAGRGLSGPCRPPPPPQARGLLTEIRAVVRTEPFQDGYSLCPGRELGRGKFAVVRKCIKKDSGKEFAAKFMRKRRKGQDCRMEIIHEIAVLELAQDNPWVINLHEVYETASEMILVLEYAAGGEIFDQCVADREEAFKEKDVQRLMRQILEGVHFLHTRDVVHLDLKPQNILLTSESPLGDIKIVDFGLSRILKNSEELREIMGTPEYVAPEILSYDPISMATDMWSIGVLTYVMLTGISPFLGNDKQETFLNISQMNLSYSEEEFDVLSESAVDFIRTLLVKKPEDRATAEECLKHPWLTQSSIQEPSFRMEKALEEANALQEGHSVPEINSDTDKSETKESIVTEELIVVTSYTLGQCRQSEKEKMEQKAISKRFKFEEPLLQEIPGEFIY
# Sequence of FGFR4 (h) (human) (P22455 460-802 limits assumed): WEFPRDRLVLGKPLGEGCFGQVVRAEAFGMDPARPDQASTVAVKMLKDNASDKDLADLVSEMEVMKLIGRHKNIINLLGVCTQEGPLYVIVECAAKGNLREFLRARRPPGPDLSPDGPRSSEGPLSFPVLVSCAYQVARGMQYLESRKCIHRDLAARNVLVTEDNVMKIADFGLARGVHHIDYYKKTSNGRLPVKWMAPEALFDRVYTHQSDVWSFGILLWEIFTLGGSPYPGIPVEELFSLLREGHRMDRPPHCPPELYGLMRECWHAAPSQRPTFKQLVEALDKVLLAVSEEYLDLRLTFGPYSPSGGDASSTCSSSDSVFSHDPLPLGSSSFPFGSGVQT
# Sequence of Rsk2 (h) (human) (P51812 whole entry): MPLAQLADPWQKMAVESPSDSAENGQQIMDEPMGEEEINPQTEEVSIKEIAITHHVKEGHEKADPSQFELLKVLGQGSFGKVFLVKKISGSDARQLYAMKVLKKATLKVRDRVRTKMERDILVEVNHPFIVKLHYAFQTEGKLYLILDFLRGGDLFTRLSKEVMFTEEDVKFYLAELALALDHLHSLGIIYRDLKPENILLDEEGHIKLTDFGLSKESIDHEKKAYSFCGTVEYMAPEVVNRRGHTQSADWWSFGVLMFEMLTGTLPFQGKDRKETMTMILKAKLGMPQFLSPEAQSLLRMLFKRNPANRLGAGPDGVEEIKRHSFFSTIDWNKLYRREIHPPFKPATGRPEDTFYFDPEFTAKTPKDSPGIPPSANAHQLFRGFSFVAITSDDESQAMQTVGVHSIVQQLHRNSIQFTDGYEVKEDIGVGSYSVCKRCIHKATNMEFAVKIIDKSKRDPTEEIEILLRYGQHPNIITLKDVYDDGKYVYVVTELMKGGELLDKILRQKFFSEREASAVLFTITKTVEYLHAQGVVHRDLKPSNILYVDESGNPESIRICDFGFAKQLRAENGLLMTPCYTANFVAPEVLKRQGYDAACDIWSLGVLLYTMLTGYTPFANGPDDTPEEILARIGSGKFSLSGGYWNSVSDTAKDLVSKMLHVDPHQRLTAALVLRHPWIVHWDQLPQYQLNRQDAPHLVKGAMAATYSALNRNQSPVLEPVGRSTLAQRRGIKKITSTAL
substance,measurement,setting,value
MMI-0300 (peptide),% activity at 100 µM,[1],89%
same,% activity at 100 µM,[2],122%
same,% activity at 100 µM,[3],127%
same,% activity at 100 µM,[4],37%
same,% activity at 100 µM,[5],28%
same,% activity at 100 µM,[6],167%
same,% activity at 100 µM,[7],82%
same,% activity at 100 µM,[8],91%
same,% activity at 100 µM,[9],40%
same,% activity at 100 µM,[10],51%
same,% activity at 100 µM,[11],73%
same,% activity at 100 µM,[12],94%
same,% activity at 100 µM,[13],155%
same,% activity at 100 µM,[14],243%
same,% activity at 100 µM,[15],35%
same,% activity at 100 µM,[16],93%
same,% activity at 100 µM,[17],16%
same,% activity at 100 µM,[18],14%

# From US20160136234A1
